B1: anti-JAG1.b70 mouse immunoglobulin G2a (mIgG2a), WT (antibody, V domains shown)
VH: EVQLVESGGGLVQPGGSLRLSCAASGFTFSNYGIHWVRQAPGKGLEWVGWITPDGGYTDYADSVKGRFTISADTSKNTAYLQMNSLRAEDTAVYYCARAGTLFAYWGQGTLVTVSS
VL: DIQMTQSPSSLSASVGDRVTITCRASQDVSTAVAWYQQKPGKAPKLLIYSASFLYSGVPSRFSGSGSGTDFTLTISSLQPEDFATYYCQQYYTTATTFGQGTKVEIK
notes: variable heavy domain of anti-JAG1.b70; constant domains of the mouse IgG2a heavy chain, wild type; variable light domain of anti-JAG1.b70; constant domain of the murine kappa light chain; Phage-display selected antibody in mIgG2a format; A batch provided by Genentech was used in animals; WT and PGLALA variants for the ELISAs were produced in HEK293E; The constant domains of the Fab in PDB 5BO1 …
B2: anti-JAG1.b70 mIgG2a, PGLALA (P329G, L234A, L235A) (antibody, V domains shown)
VH: B1 VH
VL: B1 VL
notes: variable heavy domain as in the heavy chain of m1; constant domains of the mouse IgG2a heavy chain with PGLALA in the CH2 domain; variable light domain as in the light chain of m1; constant domain of the murine kappa light chain; also called PGLALA-engineered anti-JAG1; effector-negative anti-JAG1; source: HEK293E, transient co-transfection, purified (anti-murine kLC CaptureSelect, SEC)

Target: T1, recombinant, soluble murine Jagged1 (mouse, UniProt Q9QXX0)
T1 construct: Jagged1, mouse, recombinant soluble form; also called recombinant mouse Jagged1
T1 sequence (Q9QXX0 34-1067): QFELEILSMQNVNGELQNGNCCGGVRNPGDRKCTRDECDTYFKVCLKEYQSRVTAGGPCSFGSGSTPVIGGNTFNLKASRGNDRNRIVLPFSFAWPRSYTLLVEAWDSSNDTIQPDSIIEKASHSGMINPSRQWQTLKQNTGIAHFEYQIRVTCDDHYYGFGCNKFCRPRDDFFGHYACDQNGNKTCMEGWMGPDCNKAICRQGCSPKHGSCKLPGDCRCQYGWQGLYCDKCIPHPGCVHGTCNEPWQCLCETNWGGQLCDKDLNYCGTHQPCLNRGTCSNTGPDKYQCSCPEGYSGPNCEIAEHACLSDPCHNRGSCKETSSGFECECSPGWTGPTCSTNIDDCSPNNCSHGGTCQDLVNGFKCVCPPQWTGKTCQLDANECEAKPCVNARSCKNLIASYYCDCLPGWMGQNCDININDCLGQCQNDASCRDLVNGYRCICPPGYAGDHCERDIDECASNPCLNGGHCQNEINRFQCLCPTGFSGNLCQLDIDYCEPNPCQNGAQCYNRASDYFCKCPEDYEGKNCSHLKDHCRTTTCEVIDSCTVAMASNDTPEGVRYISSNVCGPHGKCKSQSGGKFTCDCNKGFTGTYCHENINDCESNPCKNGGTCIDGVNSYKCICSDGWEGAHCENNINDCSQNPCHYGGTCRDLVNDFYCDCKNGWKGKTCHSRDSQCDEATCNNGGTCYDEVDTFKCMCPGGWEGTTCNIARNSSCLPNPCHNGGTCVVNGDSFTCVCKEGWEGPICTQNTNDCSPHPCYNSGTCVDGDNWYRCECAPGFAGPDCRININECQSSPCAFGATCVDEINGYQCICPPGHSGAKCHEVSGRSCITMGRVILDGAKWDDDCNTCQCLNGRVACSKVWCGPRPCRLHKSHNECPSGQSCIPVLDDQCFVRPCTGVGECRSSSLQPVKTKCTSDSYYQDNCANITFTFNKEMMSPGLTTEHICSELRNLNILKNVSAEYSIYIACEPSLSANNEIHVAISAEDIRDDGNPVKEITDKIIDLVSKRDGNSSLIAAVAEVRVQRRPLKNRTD
Test: ELISA; plates coated with 500 ng/mL recombinant soluble murine Jagged1 in PBS; antibodies titrated 2000-15.63 ng/mL in PBSTM, 1.5 h at RT; detected with ALP-conjugated goat anti-murine Fc
Conditions: both partners purified

Binder	binding result
B1	binds
B2	binds
